Assay results from paper doi:10.1101/2024.12.18.629111 (bioRxiv, 2024).
Each block holds one binder with its values, some of them ahead of it.

Key:
Test in all cases: pull-down
[1] = biological target: T1, CBP-Upf1-CH-HD (S. cerevisiae, UniProt P30771 54-851)
T1 sequence (looked up): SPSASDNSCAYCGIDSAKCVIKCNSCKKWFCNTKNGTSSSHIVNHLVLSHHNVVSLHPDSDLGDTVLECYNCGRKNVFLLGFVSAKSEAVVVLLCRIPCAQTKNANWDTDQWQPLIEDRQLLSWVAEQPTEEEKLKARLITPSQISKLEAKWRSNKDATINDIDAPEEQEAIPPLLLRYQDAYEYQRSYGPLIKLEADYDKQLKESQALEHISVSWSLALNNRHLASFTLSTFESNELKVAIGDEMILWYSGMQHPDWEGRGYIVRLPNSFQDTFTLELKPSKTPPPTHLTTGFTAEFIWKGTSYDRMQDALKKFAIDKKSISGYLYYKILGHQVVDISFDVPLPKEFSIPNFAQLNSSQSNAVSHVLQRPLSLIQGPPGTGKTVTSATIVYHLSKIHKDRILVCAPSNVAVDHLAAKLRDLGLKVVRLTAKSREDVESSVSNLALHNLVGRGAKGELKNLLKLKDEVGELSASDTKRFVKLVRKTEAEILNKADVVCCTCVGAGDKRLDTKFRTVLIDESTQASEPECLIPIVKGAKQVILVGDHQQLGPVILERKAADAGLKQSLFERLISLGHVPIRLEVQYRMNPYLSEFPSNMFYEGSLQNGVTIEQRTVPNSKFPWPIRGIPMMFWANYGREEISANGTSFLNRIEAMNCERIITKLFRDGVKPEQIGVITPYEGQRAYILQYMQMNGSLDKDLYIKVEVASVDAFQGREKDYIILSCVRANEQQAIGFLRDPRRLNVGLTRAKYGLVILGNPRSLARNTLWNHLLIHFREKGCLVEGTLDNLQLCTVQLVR

[2] = biological target: T2, CBP-Upf1-HD (S. cerevisiae, UniProt P30771 221-851)
T2 sequence (looked up): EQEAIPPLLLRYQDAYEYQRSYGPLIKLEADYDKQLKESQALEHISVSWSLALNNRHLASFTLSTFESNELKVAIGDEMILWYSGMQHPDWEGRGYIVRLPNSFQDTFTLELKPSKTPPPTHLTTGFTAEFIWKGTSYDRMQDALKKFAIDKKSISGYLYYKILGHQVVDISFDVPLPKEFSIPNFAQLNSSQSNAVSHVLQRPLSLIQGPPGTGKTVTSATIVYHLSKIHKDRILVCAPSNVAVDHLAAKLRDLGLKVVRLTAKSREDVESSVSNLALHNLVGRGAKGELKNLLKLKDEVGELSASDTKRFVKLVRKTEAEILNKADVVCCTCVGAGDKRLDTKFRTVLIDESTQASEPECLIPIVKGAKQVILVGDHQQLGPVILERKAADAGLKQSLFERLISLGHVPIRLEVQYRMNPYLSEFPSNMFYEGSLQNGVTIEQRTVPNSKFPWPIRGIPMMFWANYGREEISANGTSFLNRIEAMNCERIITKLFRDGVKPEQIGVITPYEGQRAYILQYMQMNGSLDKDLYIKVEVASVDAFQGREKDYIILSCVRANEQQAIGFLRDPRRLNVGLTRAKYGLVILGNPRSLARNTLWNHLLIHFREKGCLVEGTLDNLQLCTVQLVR

[3] = biological target: T3, CBP-Upf1-FL (S. cerevisiae, UniProt P30771 1-971)
T3 sequence (looked up): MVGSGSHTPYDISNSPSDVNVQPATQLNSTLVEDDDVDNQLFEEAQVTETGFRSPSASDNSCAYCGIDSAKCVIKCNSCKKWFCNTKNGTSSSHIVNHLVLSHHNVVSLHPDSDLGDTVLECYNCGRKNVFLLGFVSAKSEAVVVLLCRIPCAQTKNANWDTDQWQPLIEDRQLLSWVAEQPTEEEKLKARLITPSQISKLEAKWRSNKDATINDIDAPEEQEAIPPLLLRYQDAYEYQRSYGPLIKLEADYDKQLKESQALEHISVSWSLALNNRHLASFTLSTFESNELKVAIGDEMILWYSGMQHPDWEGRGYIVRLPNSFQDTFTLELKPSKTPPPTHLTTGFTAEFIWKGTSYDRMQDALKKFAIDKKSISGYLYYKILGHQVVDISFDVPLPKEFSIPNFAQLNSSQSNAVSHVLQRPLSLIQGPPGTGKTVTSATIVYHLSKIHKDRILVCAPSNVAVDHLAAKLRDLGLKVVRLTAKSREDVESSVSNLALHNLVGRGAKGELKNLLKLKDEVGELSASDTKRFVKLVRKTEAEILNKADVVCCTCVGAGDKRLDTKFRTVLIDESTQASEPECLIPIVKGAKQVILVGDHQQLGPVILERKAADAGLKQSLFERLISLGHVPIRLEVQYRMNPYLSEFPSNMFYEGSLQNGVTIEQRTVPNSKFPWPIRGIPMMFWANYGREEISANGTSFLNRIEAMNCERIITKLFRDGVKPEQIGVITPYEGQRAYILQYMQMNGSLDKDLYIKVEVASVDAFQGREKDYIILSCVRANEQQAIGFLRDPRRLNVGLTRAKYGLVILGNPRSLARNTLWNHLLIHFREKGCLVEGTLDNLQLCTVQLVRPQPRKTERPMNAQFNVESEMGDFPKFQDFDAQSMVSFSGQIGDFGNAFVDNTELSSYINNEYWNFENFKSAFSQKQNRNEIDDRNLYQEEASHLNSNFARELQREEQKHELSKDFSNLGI

[4] = biological target: T4, CBP-Upf1-HD-Ct (S. cerevisiae, UniProt P30771 221-971)
T4 sequence (looked up): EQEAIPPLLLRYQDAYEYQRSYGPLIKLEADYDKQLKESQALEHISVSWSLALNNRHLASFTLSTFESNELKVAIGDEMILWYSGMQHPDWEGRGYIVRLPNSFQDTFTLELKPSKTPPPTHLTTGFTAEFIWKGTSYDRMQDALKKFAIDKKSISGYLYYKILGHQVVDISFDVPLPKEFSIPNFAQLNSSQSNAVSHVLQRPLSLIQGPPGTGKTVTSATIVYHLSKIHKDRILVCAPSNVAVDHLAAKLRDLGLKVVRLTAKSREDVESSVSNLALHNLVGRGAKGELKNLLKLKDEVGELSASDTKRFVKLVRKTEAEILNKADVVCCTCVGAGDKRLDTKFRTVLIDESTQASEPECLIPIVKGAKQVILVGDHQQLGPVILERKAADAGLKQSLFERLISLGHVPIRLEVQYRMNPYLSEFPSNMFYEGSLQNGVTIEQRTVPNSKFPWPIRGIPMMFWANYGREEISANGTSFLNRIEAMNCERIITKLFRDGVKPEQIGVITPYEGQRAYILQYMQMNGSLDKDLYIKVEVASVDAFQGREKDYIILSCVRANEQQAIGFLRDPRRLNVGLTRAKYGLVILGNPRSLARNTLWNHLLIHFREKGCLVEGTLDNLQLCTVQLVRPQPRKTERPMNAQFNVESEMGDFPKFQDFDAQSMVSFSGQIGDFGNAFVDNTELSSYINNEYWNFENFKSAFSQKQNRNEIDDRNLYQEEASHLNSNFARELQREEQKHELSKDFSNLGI

B1: TS-Nmd4-His (natural protein, S. cerevisiae, UniProt Q12129 1-218, looked up)
chain: MTQYNFIIDASAFEKGLGNIKRWCSDCTEAVTLNFYIPTFTLNELDFLQQRRKSFAARESLKFIDRLDDSKFANLKVFIEFPEVLDIILWSDVMEHNDSSGKINIAKLPKRLKNLLKSCIYKCYLEGNEGLHWFLISEDPQIREMAMQCNIPSCSIVDVDSILSKDMNDKSFRESEKFNNMMLKNGTKEESENGREIIRTNFNKTVYASRGTGELWSP
binding result [1]: binds
binding result [2]: binds
binding result [3]: binds
binding result [4]: binds

B2: GST-Ebs1 (aa 1-591) (domain or fragment, S. cerevisiae, UniProt Q03466 1-591, looked up)
chain: MEPSNTQKEDLPTAFNGIKSQLNSILKSNQLFQDYALLNGFLAFVHSKLNAAILTSIESQCGKSFAADLDSFDQSSISSILDFSWESVHYPIFKWFQMWRNYILFEKENKKQQTKFIDFRKMNSKMLKFFKTVQNFYVNVINTVYKKYDISVLLPKRIIQDLKLSDIENTTNVGDILAVKTFNSSSPLAHLIPTLFHRCLLFLGTAYRYKTLLEEISNKYSISNFKKSLDFFRLASLVLPSAGETYSQAGAIFLQTGNLGIAVFNFVKGMMTKMPSPVSIKNFGALMVDNKSSLNRSLHTTIMNTYLQESKGPRTPAKEILEFYFLGLFGSVWSPTSWRDDTKPNQLNNGIKLRHLENALYETMSARYLNNIKTIFHNLIITIGGFHLLLKRRSDVSAKTLKDLRSNELDYLNFAFKYIAHILNDIVKESWSENPEVSEILGMVRIINCWIKANPMVLQYSQSNLEFVNALAYLINDIVKKKPSPSFSITEHIPKRTYWFEEDLMVKGLSFVNFQLSDFDDYEKILEMDHSLDRLIGNPPLCDKLSASSEMLLRLQAVVNISSQLLQNNNCGVEWSDNKSRYIFNKKIGFK
binding result [3]: binds

B3: HisSUMO-tagged Ebs1 (aa 1-591) (domain or fragment, S. cerevisiae, UniProt Q03466 1-591, looked up)
chain: MEPSNTQKEDLPTAFNGIKSQLNSILKSNQLFQDYALLNGFLAFVHSKLNAAILTSIESQCGKSFAADLDSFDQSSISSILDFSWESVHYPIFKWFQMWRNYILFEKENKKQQTKFIDFRKMNSKMLKFFKTVQNFYVNVINTVYKKYDISVLLPKRIIQDLKLSDIENTTNVGDILAVKTFNSSSPLAHLIPTLFHRCLLFLGTAYRYKTLLEEISNKYSISNFKKSLDFFRLASLVLPSAGETYSQAGAIFLQTGNLGIAVFNFVKGMMTKMPSPVSIKNFGALMVDNKSSLNRSLHTTIMNTYLQESKGPRTPAKEILEFYFLGLFGSVWSPTSWRDDTKPNQLNNGIKLRHLENALYETMSARYLNNIKTIFHNLIITIGGFHLLLKRRSDVSAKTLKDLRSNELDYLNFAFKYIAHILNDIVKESWSENPEVSEILGMVRIINCWIKANPMVLQYSQSNLEFVNALAYLINDIVKKKPSPSFSITEHIPKRTYWFEEDLMVKGLSFVNFQLSDFDDYEKILEMDHSLDRLIGNPPLCDKLSASSEMLLRLQAVVNISSQLLQNNNCGVEWSDNKSRYIFNKKIGFK
binding result [3]: binds

The next lines start with the values.

binding result [1]: binds
binding result [3]: binds
B4: GST-Dcp2-UBD1 (domain or fragment, S. cerevisiae, UniProt P53550 434-508, looked up)
chain: GYSSSSPGQLLDILNSKKPDSNVQSSKKPKLKILQRGTDLNSIKQNNNDETAHSNSQALLDLLKKPTSSQKIHAS

binding result [1]: binds
binding result [3]: binds
B5: GST-Dcp2-UBD (domain or fragment, S. cerevisiae, UniProt P53550 434-720, looked up)
chain: GYSSSSPGQLLDILNSKKPDSNVQSSKKPKLKILQRGTDLNSIKQNNNDETAHSNSQALLDLLKKPTSSQKIHASKPDTSFLPNDSVSGIQDAEYEDFESSSDEEVETARDERNSLNVDIGVNVMPSEKDSRRSQKEKPRNDASKTNLNASAESNSVEWGPGKSSPSTQSKQNSSVGMQNKYRQEIHIGDSDAYEVFESSSDEEDGKKLEELEQTQDNSKLISQDILKENNFQDGEVPHRDMPTESNKSINETVGLSSTTNTVKKVPKVKILKRGETFASLANDKKA
